Results published in patent publication US20250032630A1, “B7H4 ANTIBODY-DRUG CONJUGATE AND USE THEREOF” (Duality Biologics (Suzhou) Co., Ltd., priority 2022, published 2025).

Legend:
human B7H4 [1] = target: T1, human B7H4 (human, UniProt Q7Z7D3 25-282); assay: cell-based or functional assay
T1 sequence (looked up): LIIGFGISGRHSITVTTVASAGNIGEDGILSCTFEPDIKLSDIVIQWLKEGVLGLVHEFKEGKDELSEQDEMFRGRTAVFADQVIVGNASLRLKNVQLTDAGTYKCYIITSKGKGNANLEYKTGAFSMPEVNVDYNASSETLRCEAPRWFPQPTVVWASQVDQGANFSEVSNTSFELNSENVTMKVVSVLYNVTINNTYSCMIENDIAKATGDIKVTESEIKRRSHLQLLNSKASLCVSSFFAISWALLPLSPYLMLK

human B7H4 [2] = target: T1, human B7H4; assay: cell-based or functional assay; remark: listed apart in the source
human B7H4 [3] = target: T1, human B7H4; assay: cell-based or functional assay; remark: listed apart in the source
human CD80 (B7-1) = target: T2, human CD80 (B7-1) (human, UniProt P33681 35-288); assay: flow cytometry on HEK293T cells stably expressing the human protein, one concentration
T2 construct: whole, on cells
T2 sequence (looked up): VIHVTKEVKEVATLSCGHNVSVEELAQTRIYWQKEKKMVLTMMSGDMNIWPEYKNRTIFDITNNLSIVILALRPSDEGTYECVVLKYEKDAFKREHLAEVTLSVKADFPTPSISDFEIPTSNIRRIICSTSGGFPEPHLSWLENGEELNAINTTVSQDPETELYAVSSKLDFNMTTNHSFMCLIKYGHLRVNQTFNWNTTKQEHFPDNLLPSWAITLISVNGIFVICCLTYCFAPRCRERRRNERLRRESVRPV

human CD86 (B7-2) = target: T3, human CD86 (B7-2) (human, UniProt P42081 24-329); assay: as above
T3 construct: whole, on cells
T3 sequence (looked up): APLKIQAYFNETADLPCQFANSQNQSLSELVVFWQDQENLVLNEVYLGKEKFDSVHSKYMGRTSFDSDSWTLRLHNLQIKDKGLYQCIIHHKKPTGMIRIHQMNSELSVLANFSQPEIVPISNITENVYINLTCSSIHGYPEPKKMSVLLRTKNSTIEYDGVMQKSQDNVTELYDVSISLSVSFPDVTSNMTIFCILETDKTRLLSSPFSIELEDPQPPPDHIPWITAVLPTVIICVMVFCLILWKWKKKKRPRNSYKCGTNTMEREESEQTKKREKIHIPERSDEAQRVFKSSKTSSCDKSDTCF

human PD-L1 (B7-H1) = target: T4, human PD-L1 (B7-H1) (human, UniProt Q9NZQ7 19-290); assay: as above
T4 construct: whole, on cells; also called CD274

human PD-L2 (B7-DC) = target: T5, human PD-L2 (B7-DC) (human, UniProt Q9BQ51 20-273); assay: as above
T5 construct: whole, on cells; also called CD273
T5 sequence (looked up): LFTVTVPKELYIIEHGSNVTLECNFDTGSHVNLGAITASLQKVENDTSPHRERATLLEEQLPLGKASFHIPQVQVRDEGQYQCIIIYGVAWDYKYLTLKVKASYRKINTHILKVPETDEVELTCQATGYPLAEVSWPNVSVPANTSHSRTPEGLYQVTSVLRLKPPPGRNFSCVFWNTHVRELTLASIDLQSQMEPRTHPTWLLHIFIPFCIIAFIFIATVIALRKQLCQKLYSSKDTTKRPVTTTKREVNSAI

human CD276 (B7-H3) = target: T6, human CD276 (B7-H3) (human, UniProt Q5ZPR3 29-534); assay: as above
T6 construct: whole, on cells
T6 sequence (looked up): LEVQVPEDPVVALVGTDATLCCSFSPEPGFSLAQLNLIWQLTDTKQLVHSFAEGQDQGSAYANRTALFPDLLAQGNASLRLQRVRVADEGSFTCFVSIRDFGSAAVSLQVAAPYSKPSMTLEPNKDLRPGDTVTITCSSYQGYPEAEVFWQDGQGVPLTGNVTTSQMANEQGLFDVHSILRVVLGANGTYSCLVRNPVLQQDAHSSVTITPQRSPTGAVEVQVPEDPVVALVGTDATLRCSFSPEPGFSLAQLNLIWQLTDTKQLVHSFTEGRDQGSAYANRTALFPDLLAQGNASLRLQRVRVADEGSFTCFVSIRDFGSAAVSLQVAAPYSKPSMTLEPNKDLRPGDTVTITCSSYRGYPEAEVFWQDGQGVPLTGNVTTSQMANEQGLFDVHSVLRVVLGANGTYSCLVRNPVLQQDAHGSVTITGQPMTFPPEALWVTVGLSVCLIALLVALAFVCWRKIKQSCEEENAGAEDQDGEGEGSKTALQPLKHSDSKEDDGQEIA

human VISTA (B7-H5) = target: T7, human VISTA (B7-H5) (human, UniProt Q9H7M9 33-311); assay: as above
T7 construct: whole, on cells
T7 sequence (looked up): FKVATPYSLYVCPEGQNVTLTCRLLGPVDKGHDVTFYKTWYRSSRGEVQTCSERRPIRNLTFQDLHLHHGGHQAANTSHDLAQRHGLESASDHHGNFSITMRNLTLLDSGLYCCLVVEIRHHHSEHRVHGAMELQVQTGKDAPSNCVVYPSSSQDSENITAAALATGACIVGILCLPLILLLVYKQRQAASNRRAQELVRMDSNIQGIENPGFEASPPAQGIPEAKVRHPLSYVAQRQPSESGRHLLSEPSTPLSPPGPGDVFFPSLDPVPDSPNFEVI

human B7H4 [4] = target: T1, human B7H4; assay: flow cytometry on human B7H4-transfected HEK293T cells, PE anti-human IgG Fc secondary antibody
mouse B7H4 = target: T8, mouse B7H4 (mouse, UniProt Q7TSP5 25-257); assay: flow cytometry on mouse B7H4-transfected HEK293T cells, PE anti-human IgG Fc secondary antibody
T8 construct: whole, on cells; also called Mouse B7H4-293T
T8 sequence (looked up): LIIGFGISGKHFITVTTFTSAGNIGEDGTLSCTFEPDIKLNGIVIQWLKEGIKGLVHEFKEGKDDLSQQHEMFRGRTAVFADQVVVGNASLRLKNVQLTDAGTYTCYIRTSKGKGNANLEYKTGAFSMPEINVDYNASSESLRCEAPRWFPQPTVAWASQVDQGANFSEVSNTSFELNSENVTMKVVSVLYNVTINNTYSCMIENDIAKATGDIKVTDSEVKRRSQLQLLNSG

T4 sequence (Q9NZQ7 19-290): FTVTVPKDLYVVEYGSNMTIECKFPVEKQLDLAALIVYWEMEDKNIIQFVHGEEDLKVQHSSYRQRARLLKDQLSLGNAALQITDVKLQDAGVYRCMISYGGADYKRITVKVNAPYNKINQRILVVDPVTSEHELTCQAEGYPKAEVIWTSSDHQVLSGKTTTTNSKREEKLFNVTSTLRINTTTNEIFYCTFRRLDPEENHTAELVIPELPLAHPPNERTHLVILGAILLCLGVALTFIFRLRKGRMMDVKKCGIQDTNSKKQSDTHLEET

B1: antibody-drug conjugate DB1001-X2 (antibody, DAR 5.4, V domains shown)
VH: QVQLVESGGGVVQPGRSLRLSCAASGFTFRSFGMHWVRQAPGKGLEWVAVISYDASNEYYADSVKGRFIISRDNSKDTLYLQMNSLRAGDTAVYYCAKGGALRWYFAYWGQGTLVTVSS
VL: EIVMTQSPATLSVSPGERATLSCRASQSISSNLGWYQQKPGQAPRLLIYGASTRATGIPARFSGSGSGTEFTLTISSLQSEDFAVYYCQQYRSWPPLTFGGGTKVEIKR
modifications: linker-cytotoxin X2 (payload P-III-30) coupled after TCEP reduction of the antibody; drug-to-antibody ratio (DAR) of 5.4; conjugation residues not stated
notes: also called anti-B7H4 ADC DB1001-X2
Q: Which “IC50 (nM), in vitro proliferation inhibition of MDA-MB-468 cells (CTG, 7 days)” value (human B7H4 [1]) does the source give for B1 here?
A: 50.7 nM

Q: And the “Fold over blank control, endocytosis by MDA-MB-468 cells” value (human B7H4 [2])?
A: 2.4 fold

Q: And the “IC50 (nM), proliferation inhibition of MX-1 cells with high expression of B7H4 (3D culture, CTG)” value (human B7H4 [3])?
A: 52.4 nM

Q: And the “IC50 (nM), proliferation inhibition of RL95-2 cells with low expression of B7H4 (3D culture, CTG)” value (human B7H4 [3])?
A: 69.4 nM

Q: Does B1 bind (human CD80 (B7-1))?
A: no binding (tested: 100 nM or 300 nM)

Q: Does B1 bind (human CD86 (B7-2))?
A: no binding (tested: 100 nM or 300 nM)

Q: Does B1 bind (human PD-L1 (B7-H1))?
A: no binding (tested: 100 nM or 300 nM)

Q: Does B1 bind (human PD-L2 (B7-DC))?
A: no binding (tested: 100 nM or 300 nM)

Q: Does B1 bind (human CD276 (B7-H3))?
A: no binding (tested: 100 nM or 300 nM)

Q: Does B1 bind (human VISTA (B7-H5))?
A: no binding (tested: 100 nM or 300 nM)

Q: What about the EC50 (human B7H4 [4]) of the same binder?
A: 2.18 nM

Q: Does B1 bind (mouse B7H4)?
A: no binding (tested: highest concentration 100 nM)
